In data set [1] the test system is T1, NF-IL6/LAP (wild type, C/EBP beta), P21272-2.
T1 sequence: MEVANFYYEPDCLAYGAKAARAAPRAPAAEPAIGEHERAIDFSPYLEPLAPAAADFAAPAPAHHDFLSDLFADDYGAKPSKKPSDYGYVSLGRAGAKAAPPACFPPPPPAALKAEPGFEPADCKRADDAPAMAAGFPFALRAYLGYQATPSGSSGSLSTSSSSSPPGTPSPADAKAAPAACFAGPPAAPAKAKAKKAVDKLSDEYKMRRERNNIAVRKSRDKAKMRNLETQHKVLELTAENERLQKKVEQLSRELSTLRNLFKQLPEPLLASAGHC
Kind of data set: cell_activity. The note with it: increase in CAT transactivation with PKC alpha plus TPA, HepG2.

The subject of data set [2] is LAP(Asp105)/GAL4 chimera S105D (/ Saccharomyces cerevisiae). Kind of data set: cell_activity. The conditions noted are these: luciferase relative to LAP(Ser105)/GAL4.

On to D-CAT reporter (albumin D-site), for which the activity in data set [1] turned out to be 5 fold.
Consider 5xGAL4-LUC reporter GAL4 sites, for which the activity in data set [2] was 3 fold.

(Values after patent US5874209.)
